Data published in paper PMC8074050.

Molecular target: nominally empty recombinant adeno-associated virus 5 capsid (adeno-associated virus 5 (recombinant, rAAV5)) (UniProt Q9YIJ1)
Assay: SEC-MALS; Superose 6 Increase (10/300), phosphate-buffered saline as mobile phase, 0.8 mL/min, column and detectors at 30 °C, samples kept at 4 °C before injection; RI, UV and RALS/LALS detection; whole capsid with whole capsid (dimer of capsids)

nominally empty recombinant adeno-associated virus 5 capsid (from UniProt Q9YIJ1 1-724) (complex)
fraction of sample (%) in the dimer peak: 7.2%
stoichiometry N: 2
